Consider five molecules from paper PMC8187361, “Nanoscale architecture of a VAP-A-OSBP tethering complex at membrane contact sites” (Nature Communications, 2021).

First the molecules themselves.
B1: VAP-A (natural protein, human, UniProt Q9P0L0 8-249, looked up)
chain: MAKHEQILVLDPPTDLKFKGPFTDVVTTNLKLRNPSDRKVCFKVKTTAPRRYCVRPNSGIIDPGSTVTVSVMLQPFDYDPNEKSKHKFMVQTIFAPPNTSDMEAVWKEAKPDELMDSKLRCVFEMPNENDKLNDMEPSKAVPLNASKQDGPMPKPHSVSLNDTETRKLMEECKRLQGEMMKLSEENRHLRDEGLRLRKVAHSDKPGSTSTASFRDNVTSPLPSLLVVIAAIFIGFFLGKFIL
notes: VAP-A, human, Q9P0L0, fragment 8-249 with its C-terminal transmembrane helix; The methods give the fragment 8-249 and the results say full-length; Both tags were removed with TEV protease before size exclusion chromatography; also called full-length VAP-A; human VAP-A; source: E. coli C41 (DE3), membranes solubilised in DDM, purified (Strep-Tactin, TEV, Superdex 200); reconstituted in egg …
B2: N-PH-FFAT (domain or fragment, UniProt P22059 1-408, looked up)
chain: MAATELRGVVGPGPAAIAALGGGGAGPPVVGGGGGRGDAGPGSGAASGTVVAAAAGGPGPGAGGVAAAGPAPAPPTGGSGGSGAGGSGSAREGWLFKWTNYIKGYQRRWFVLSNGLLSYYRSKAEMRHTCRGTINLATANITVEDSCNFIISNGGAQTYHLKASSEVERQRWVTALELAKAKAVKMLAESDESGDEESVSQTDKTELQNTLRTLSSKVEDLSTCNDLIAKHGTALQRSLSELESLKLPAESNEKIKQVNERATLFRITSNAMINACRDFLMLAQTHSKKWQKSLQYERDQRIRLEETLEQLAKQHNHLERAFRGATVLPANTPGNVGSGKDQCCSGKGDMSDEDDENEFFDAPEIITMPENLGHKRTGSNISGASSDISLDEQYKHQLEETKKEKRTR
notes: OSBP residues 1-408 (N-terminal region, PH domain, central core, FFAT motif), lacking the ORD; also called 1-408-OSBP; NH-FFAT
B3: OSBP CC[G324C] (C224A/C276A/G324C) (domain or fragment, UniProt P22059 199-324, looked up)
chain: VSQTDKTELQNTLRTLSSKVEDLSTANDLIAKHGTALQRSLSELESLKLPAESNEKIKQVNERATLFRITSNAMINAARDFLMLAQTHSKKWQKSLQYERDQRIRLEETLEQLAKQHNHLERAFRC
modifications: AF-488, AF-568 or both dyes on the introduced cysteine C324 in the FRET experiments; unlabelled in gel filtration
notes: Cloned via BamH1/Xma1 into pGEX-4T2; source: E. coli Bl21gold, purified (Glutathione-Sepharose, thrombin, MonoS, Superose 12)
B4: OSBP Central Core (CC), wild type (domain or fragment, UniProt P22059 199-324, looked up)
chain: B3 chain with A26C, A78C, C126G
notes: The methods describe cloning (pGEX-4T2, GST tag, thrombin cleavage) and purification only for the cysteine mutants; also called OSBP CC; source: E. coli, purified

Residue numbers refer to the chain shown, from its start. Names may count otherwise.

In one series the target is OSBP FFAT (Homo sapiens) (UniProt P22059). As to conditions: cited from earlier work.
The target of the series “N-PH-FFAT” is B2. Description: membrane tethering seen by cryo-EM and cryo-ET; N-PH-FFAT or OSBP bound to GalCer/PI4P tubes (70 lipids/protein mol/mol), VAP-A proteoliposomes added (2 min incubation, or sequentially on the grid for 30 s), HK buffer, room temperature. As to conditions: both partners purified.
Series [1] deals with the molecule itself. The experiment in a line: SDS-PAGE without heating; purified VAP-A in DDM, with reducing agents; bands at ~55 kDa and ~25 kDa, a single band when the samples were heated.
Series [2] concerns the molecule itself. Description: cryo-EM structure; cryo-ET with sub-tomogram averaging of contact sites between VAP-A vesicles (LPR 70 mol/mol) and N-PH-FFAT on PI4P tubes; class with 20-25 nm membrane separation; VAP-A and N-PH-FFAT averaged separately.
Series [3] deals with the molecule itself. Description: SEC; analytical gel filtration, Superdex 75, 100 ul of 10 uM protein, 25 mM Tris pH 7.5, 120 mM NaCl, 1 mM DTT; Stokes radius against MW of standards.

One may read the Kd as the concentration at which binding is half-saturated. Take VAP-A MSP (from UniProt Q9P0L0): the Kd in the series with OSBP FFAT (Homo sapiens) was 2000 nM. Usually stoichiometry N stands for a count of units in the complex or per binding partner. B1: the binding result with N-PH-FFAT is given as “binds”. For the same molecule, the “stoichiometry N” value in series [1] is 2.

Take B2: the “stoichiometry N” value in series [2] was determined as 2. Take B3: in series [3], the binding result is listed as “binds”. Take B4: the “stoichiometry N” value in series [3] came out at 2.
